Patent publication US12365732 (23ANDME, dated 2025)

Key:
[1] = biological target: T1, hu-CD96 isoform 2 on CHO cells (human, UniProt P40200 22-585); test: FACS, Ab 2 nM
T1 construct: also called CHO-CD96 (isoform 2); CD96-CHOs
T1 sequence: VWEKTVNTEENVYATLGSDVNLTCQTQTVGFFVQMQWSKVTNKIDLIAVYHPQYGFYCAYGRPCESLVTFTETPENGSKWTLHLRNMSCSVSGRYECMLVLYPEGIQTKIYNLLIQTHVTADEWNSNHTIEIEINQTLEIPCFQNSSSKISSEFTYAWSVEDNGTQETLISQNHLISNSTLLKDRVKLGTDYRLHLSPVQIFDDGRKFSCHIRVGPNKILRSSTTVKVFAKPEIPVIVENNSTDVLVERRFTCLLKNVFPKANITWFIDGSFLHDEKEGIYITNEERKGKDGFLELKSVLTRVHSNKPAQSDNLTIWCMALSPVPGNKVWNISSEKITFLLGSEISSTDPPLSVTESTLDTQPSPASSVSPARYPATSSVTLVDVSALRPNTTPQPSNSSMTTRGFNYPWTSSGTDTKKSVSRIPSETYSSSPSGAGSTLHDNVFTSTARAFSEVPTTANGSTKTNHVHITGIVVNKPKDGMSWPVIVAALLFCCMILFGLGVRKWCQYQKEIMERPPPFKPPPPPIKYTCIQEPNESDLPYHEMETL
Experimental: (§1) Isoform 1 of hu-CD96 (Origene, catalog #RC213845) was transiently expressed in HEK293T cells following standard lipofectamine or Fugene transfection protocol. […] Cells were washed, and binding was detected by incubation with anti-mouse IgG-FITC (Biolegend, catalog #406001) for 20 minutes at 4° C. Cell binding was analyzed by flow cytometry with a CytoFLEX (Beckman Coulter). Binding curves were calculated as a percentage of cells positive for bound antibody.
(§2) Isoform 2 of hu-CD96 (DNA construct: Origene, catalog #RC221005) was expressed on a single-cell-clone-derived CHO stable cell line. Binding of the anti-CD96 antibodies to the CHO cells were determined as described above with isoform 1 of hu-CD96.

[2] = biological target: T1, hu-CD96 isoform 2 on CHO cells; test: FACS, Ab 0.0032 nM
Experimental: as §1, §2

[3] = biological target: T1, hu-CD96 isoform 2 on CHO cells; test: FACS, Ab 50 nM
Experimental: as §1, §2

[4] = biological target: T1, hu-CD96 isoform 2 on CHO cells; test: FACS, Ab 0.08 nM
Experimental: as §1, §2

[5] = biological target: T2, cynomolgus monkey CD96D1 D3-hFc (cynomolgus monkey); test: ELISA, coated CD96D1D3-hFc
T2 construct: also called cy-CD96D1 D3
Experimental: (§3) CD96 binding of purified hybridoma antibodies: The hu-CD96 and cy-CD96 antigen binding ELISA was performed on the purified hybridoma antibodies. Briefly, 96-well MAXISORP® flat bottom plates (Thermo Fisher Scientific, Waltham, MA; Cat #439454) were coated overnight at 4° C. with 0.5 µg/mL of hu-CD96D1 D3-hFc and cynomolgus monkey CD96D1 D3-hFc in PBS. After removing the coating solution, unspecific binding was blocked by PBS containing 1% bovine serum albumin (blocking buffer) and incubation at room temperature for one hour. Plates were then washed three times with PBS and 0.05% TWEEN®-20 (wash buffer). Serial dilution of purified antibodies in PBS containing 0.5% BSA and 0.05% Tween 20 (ELISA buffer) was added to individual wells followed by incubation at room temperature for one hour with agitation. Plates were washed three times with wash buffer, then 100 µL/well of anti-mouse IgG-HRP (Thermo Fisher Scientific, Waltham, MA; Cat #626520) in ELISA buffer was added. […] Enzymatic color development was stopped with 50 µL/well of TMB stop solution (VWR/Avantor, Radnor, PA, USA; Cat #95059-200). Plates were analyzed with a SpectraMax i3X plate reader (Molecular Devices LLC, San Jose, CA, USA) at 450 nm.

[6] = biological target: hu-CD96D1 D3-hFc (human); test: ELISA, coated CD96D1D3-hFc
Experimental: as §3

[7] = biological target: T1, hu-CD96 isoform 2 on CHO cells; test: FACS, Ab 10 nM
Experimental: as §1, §2

[8] = biological target: T1, hu-CD96 isoform 2 on CHO cells; test: FACS, Ab 0.4 nM
Experimental: as §1, §2

[9] = biological target: T1, hu-CD96 isoform 2 on CHO cells; test: FACS, % positive curve
Experimental: as §1, §2

[10] = biological target: T3, recombinant hu-CD96 (M1-M503-polyHis) (human, UniProt P40200 22-519); test: ELISA, blocks hu-CD96-his binding to coated CD155-hFc
T3 construct: also called hu-CD96-his
T3 sequence: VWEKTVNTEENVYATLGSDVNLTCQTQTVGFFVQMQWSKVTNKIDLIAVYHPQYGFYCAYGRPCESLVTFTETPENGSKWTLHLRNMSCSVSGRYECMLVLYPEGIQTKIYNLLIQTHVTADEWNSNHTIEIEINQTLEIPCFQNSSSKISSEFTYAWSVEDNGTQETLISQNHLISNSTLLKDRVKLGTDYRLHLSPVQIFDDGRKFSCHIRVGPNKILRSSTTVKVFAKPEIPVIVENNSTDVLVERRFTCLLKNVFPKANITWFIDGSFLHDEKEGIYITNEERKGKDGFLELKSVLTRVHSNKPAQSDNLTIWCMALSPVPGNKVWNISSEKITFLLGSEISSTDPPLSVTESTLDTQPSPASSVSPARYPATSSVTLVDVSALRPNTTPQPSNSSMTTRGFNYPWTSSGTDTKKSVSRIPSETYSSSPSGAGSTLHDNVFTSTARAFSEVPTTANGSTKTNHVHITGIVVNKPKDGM
Experimental: as §3
CD155 receptor blocking of purified hybridoma antibodies: Human CD155 blocking ELISA was performed on purified hybridoma antibodies following the same protocol as described for CD96 (above), except that serial dilution of purified antibodies 50 µL/well (starting at 1 µM, 1:5 dilution) in assay buffer was added into the reaction.

[11] = biological target: T1, hu-CD96 isoform 2 on CHO cells; test: FACS, Ab 0.016 nM
Experimental: as §1, §2

T2 sequence (chain, as listed by the source limits assumed): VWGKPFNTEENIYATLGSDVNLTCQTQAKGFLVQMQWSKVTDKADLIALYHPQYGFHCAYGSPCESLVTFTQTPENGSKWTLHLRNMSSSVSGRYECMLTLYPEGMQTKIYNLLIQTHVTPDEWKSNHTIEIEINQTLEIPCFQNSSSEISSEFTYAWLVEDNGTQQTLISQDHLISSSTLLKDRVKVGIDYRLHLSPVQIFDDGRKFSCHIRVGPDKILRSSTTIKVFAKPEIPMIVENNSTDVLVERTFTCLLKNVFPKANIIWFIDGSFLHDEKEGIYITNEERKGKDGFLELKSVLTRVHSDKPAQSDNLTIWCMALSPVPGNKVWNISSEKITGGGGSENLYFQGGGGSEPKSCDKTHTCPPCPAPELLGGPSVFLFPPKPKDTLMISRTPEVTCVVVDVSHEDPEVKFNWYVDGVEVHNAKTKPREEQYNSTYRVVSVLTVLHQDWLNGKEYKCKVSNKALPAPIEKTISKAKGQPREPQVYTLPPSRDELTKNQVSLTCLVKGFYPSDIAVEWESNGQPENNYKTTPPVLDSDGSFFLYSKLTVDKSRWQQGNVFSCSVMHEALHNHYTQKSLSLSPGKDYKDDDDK

- % positive [1]: 26.2%
- % positive [2]: 0.1%
- % positive [3]: 34.8%
- % positive [4]: 0.2%
- binding result [5]: no binding
- EC50 [6]: 0.072 nM
- % positive [7]: 35.3%
- % positive [8]: 7.1%
- EC50 [9]: 1.04 nM
- IC50 [10]: 0.883 nM
- % positive [11]: 0%
B1: 1G8, purified hybridoma antibody (antibody, V domains shown)
VH: QVQLQQSGPELLKPGASVKISCKASGYTFTDYYINWVKQRPGQGLEWIGWIFPGTEGIYYNEKFKGKATLTVDKSSTTAYMLLSSLTSEDSAVYFCAREGDYRYYSPLGYWGQGTLVTVSA
VL: DIQMNQSPSSLSASLGDTITITCRVSQDISFWLSWYQQKPGNIPKLLIYKASNLHTGVPPRFSGSGSGTDFTLTISSLQPEDIAAYYCLQSQSYPYTFGGGTKLEIK
notes: murine hybridoma IgG
